Test results taken from paper PMC12548415 (Journal of Virology, 2025).

Biological target: T1, raccoon dog transferrin receptor ectodomain (recombinant RDTfR, from residue 121, C-terminal 6x His) (raccoon dog)
T1 construct: transferrin receptor type 1 of the raccoon dog, ectodomain starting at amino acid residue 121 of XM_055316305; Cloned with the N-terminal signal peptide GP67; also called recombinant RDTfR protein; purified RDTfR; source: Sf9 cells (pFastBacI-RDTfR), purified (Ni-NTA, dialysed in PBS); not shown: His6, C-terminal, kept
Test: BLI; virus immobilised on APS probe (Gator Prime), PBS as running buffer; three concentrations (serial dilutions) of RDTfR in PBST (PBS, 0.05% Tween-20) applied; global fit, 1:1 binding model
Details: both partners purified

B1: rRDPV-10 virus (rescued from the infectious cDNA clone pRDPV-10 of raccoon dog parvovirus strain RDPV/FLD/2010), capsid of VP2 (complex)
chain: MSDGAVQPDGGQPAVRNERATGSGNGSGGGGGGGSGGVGISTGTFNNQTEFKFLENGWVEITANSSRLVHLNMPESENYRRVVVNNMDKTAVNGNMALDDIHAQIVTPWSLVDANAWGVWFNPGDWQLIVNTMSELHLVSFEQEIFNVVLKTVSESATQPPTKVYNNDLTASLMVALDSNNTMPFTPAAMRSETLGFYPWKPTIPTPWRYYFQWDRTLIPSHTGTSGTPTNIYHGTDPDDVQFYTIENSVPVHLLRTGDEFATGTFFFDCKPCRLTHTWQTNRALGLPPFLNSLPQSEGATNFGDIGVQQDKRRGVTQMGNTNYITEATIMRPAEVGYSAPYYSFEASTQGPFKTPIAAGRGGAQTDENQAADGNPRYAFGRQHGQKTTTTGETPERFTYIAHQDTGRYPEGDWIQNINFNLPVTNDNVLLPTDPIGGKTGINYTNIFNTYGPLTALNNVPPVYPNGQIWDKEFDTDLKPRLHVNAPFVCQNNCPGQLFVKVAPNLTNEYDPDASANMSRIVTYSDFWWKGKLVFKAKLRASHTWNPIQQMSINVDNQFNYVPSNIGGMKIVYEKSQLAPRKLY
Kd: 137 nM | koff: 0.0071 s⁻¹ | kon: 51800 M⁻¹ s⁻¹
